In PMC4976313, “ZCF32, a fungus specific Zn(II)2 Cys6 transcription factor, is a repressor of the biofilm development in the human pathogen Candida albicans”:

Target: T1, Zcf32 ZFN-MBP (Candida albicans, UniProt Q5ANG4 1-116)
T1 sequence: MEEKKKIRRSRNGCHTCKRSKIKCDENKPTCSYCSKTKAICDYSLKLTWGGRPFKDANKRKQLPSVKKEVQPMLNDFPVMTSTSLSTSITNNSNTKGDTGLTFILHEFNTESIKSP
Experiment: EMSA; EMSA: 1X HEPES buffer (20 mM HEPES pH 7.8, 150 mM KCl, 0.1% BSA, 10% glycerol), on ice 30 min, 6% native PAGE
Conditions: protein: recombinant; tags: MBP (pMAL-c2x); chain copies: 2; label: 32P 5' end; blunt

B1: O1 (dsDNA)
DNA 1: TACCCGATATAGCCGATG
DNA 2: CATCGGCTATATCGGGTA
B1: binds.

B2: O2 (dsDNA)
DNA 1: CCGATATAGCCGATGCAT
DNA 2: ATGCATCGGCTATATCGG
B2: binds.
